Source: the domain aggregation screens of Martell et al. (2025)

Experiment: soluble fraction after stress (log2 fold change); higher = more stays soluble; pooled small domains, quantitative proteomics
Settings: stress: pH 4
Outline: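 Aggregation propensity is estimated from the fold change in each domain's soluble amount after acid stress. Pooled small-domain libraries were stressed at pH 4, and higher log2 values mean more stayed soluble.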

## HMVLTGTIKKYNNERGFGFISTSNFGDVFFHIKDFQKGEQPIPGREVYFEVVKKENKKRAIHVYYSD
  soluble fraction (log2): -0.243

## HMVLVSNYGEVVRKARERKGLDHGSLAMKISEKKSIITSVESGNMKPNEKLIKKLENFLNINLM
  soluble fraction (log2): -0.471

## HMVMIPDLVGETIEDAKDILEGLGFEVEVRSEFPESDWGRPFARVTSLSPSAGQEVAKGTLVIIRSF
  soluble fraction (log2): -0.144

## HMVMLIVMNHTASQADIDKVIEVVSGMGFTAAPIPGGERTAIGVLGNKGYVDDSTIRDLPGVQQAIHVSKP
  soluble fraction (log2): -0.301

## HMVMSVGENIAYFRKKLGLTQEMLSERIGVTAQAVSKWENGVTNPDISLLPRISEALGIGIGDLFD
  soluble fraction (log2): -0.218

## HMVNAVKFAIEKMPYKYSSLLTLKYVMGYSGKEIAEITGLSETNVRQQLLKGRKLLESMLEE
  soluble fraction (log2): -0.105

## HMVNGTPADPYDVLGVESSASPEELRAAWQTLVRQNHPDQLMARGVPLEAVKLAEARLVAINQAWDDLTK
  soluble fraction (log2): -1.33

## HMVNHVGITVSNLERSIQFYEALTGKKIANQDTIGGKRMAQTQGLADTLIKYANLHLDNLNIDLLEYVE
  soluble fraction (log2): -0.448

## HMVNIAVMTVSDTRTEADDKSGSLLVSKIEGDGHVLADRAIITDDVPRIIAKLKEWIESPQVDVVVT
  soluble fraction (log2): -0.606

## HMVNINEVEVSRDLAHAKVFVTFVGDRTDEINTQALKVLNAAQGFLRSRIASNNHMRTTPRIHF
  soluble fraction (log2): -0.214

## HMVNIPEIAKKFGKSTSEVFEQIQIGEKHEMEHTNDPKKARKIALDHLSDDMDYYKKLKKLG
  soluble fraction (log2): ≥ 0.43

## HMVNLKQVELREHHPWVGHKIKELDISRHTLIVMIRRGDNAIVPNGDTLIKSGDIVFVFSKR
  soluble fraction (log2): -0.839

## HMVNPHPVYRSWGLLYVEARDGDSLESIAKEFGFSVKKLAKYNEVPKDYPLEAGDIVYLEKKKK
  soluble fraction (log2): 0.019

## HMVNPIDFYLLFRTELQRLAEHPITVDRLTEVTGLNKLQVLDWLKRAEQDGLVKKLNRPTRYQLN
  soluble fraction (log2): -0.536

## HMVPAMGSLTLIKGGVNLRNAPGGLTIAQLDRGLVLSYTKFVQKDGYTWYLVNSPKGTGYVRSDVVQLGS
  soluble fraction (log2): -0.3

## HMVPDGFDQLTEREYQVAMAVGKGLNNKEIASQLGLGERTVKAHLTTTFEKLHVRDRVQLALIVNRL
  soluble fraction (log2): -0.404

## HMVPDVVGKDYALAQAELEGANLVVAKGSSRYDDTLPAGVVLATDPKVGTVVKPGAKVTVILSK
  soluble fraction (log2): 0.268

## HMVPLSMLTEGQIFRGQVLDITSQGIKIQLNPEQILFARLGEQVELNIGQQMAFQVRENKGDQLIIHPMQN
  soluble fraction (log2): -1.18

## HMVPVQLTPRELQVARLAAHGASSPEIAAELRVSRRTVDNQLGRVYAKLGIAGRAELAAALSRLPVSV
  soluble fraction (log2): ≥ 0.43

## HMVPVSIYAYNKIKTAILNNELMPGEKLVEASLAETLNMSRTPIREALRQLEQEGFVTYYPQKGSIVSH
  soluble fraction (log2): -0.91

## HMVQAQGARIREARVQRGLSQAQLGEPRYSGSYISHIENGRRSPGTDVLAFIAARLGLEPGALDS
  soluble fraction (log2): -0.164

## HMVQIFIPVVHDDHWFLIVFSREEDTFYVLDSLPSLSRISTINGIISTLKEHLQQASVGPQYSVKVLPVK
  soluble fraction (log2): 0.144

## HMVQLAEGERYRRIQEANDFINRQQWPGKAAMGRLKDTEKAQYNLWLDYLDALEAVDTSSAPKINWPVPPE
  soluble fraction (log2): -0.156

## HMVQQAVNMAKPGKLFTGPSPTSKALRDLDAGAMLYPTGEKQGPFWKVQDELGNEGWVAMGLLQLA
  soluble fraction (log2): -0.0346

## HMVQVDNELTEFSVQSITRGIDALGEVTIRVTAPDGGVYTGRGADNDIIVSSTKAYLNALNRLLNDK
  soluble fraction (log2): -0.552

## HMVQYVDFVKRMIEELPWWHRRMLELKYLDGLTYEEIADELQVPVGTVKGTLHRAKELFQEILKNN
  soluble fraction (log2): -1.71

## HMVRDPYELLEVPREATPDEIKSAFRKLAARHHPDRNPDDPGAQERFKEINAAYQLLSDPQKRAMFDRFGA
  soluble fraction (log2): 0.331

## HMVRKIQAKLVLRLHAQGLSGRAIARSQGMSRRSVSDVLDAARAVGVGWDDVTGKTDGEVYALLFPGRG
  soluble fraction (log2): 0.0261
